Experimental data as given in patent US20210340238A1, “TGFß1 INHIBITORS AND USE THEREOF” (Scholar Rock, Inc., priority 2018, published 2021).
Changes are numbered by the printed parent chain. Several values for one entry are separate records, joined by “and”; a condition that tells them apart may be missing. Identical values can stand only once.

B1: Ab19: monoclonal antibody binding proTGFβ1 complexes; VH SEQ ID NO: 234, VL SEQ ID NO: 15 (antibody, V domains shown)
VH: QVQLVESGGGVVQPGRSLRLSCAASGFTFSSFAMTWVRQAPGKGLEWVSAISGSGAATYFADSVKGRFTISRDNSKNTLYLQMNSLRAEDTAVYYCARVSSGHWDFDEWGQGTLVTVSS
VL: DIQLTQSPSSLSASVGDRVTITCRASQSISSYLNWYQQKPGKAPKLLIYAASNLQSGVPSRFSGSGSGTDFTLTISSLQPEDFATYYCQQTYTVPLTFGGGTKVEIK
B2: Ab20: monoclonal antibody binding proTGFβ1 complexes; VH SEQ ID NO: 236, VL SEQ ID NO: 15 (antibody, V domains shown)
VH: EVQLLESGGGLVQPGGSLRLSCAASGFTFSAYAMTWVRQAPGKGLEWVSAISGSGGVTYYADSVKGRFTISRDNSKNTLYLQMNSLRAEDTAVYYCARVSSGHWDYDYWGQGTLVTVSS
VL: B1 VL
B3: Ab12: monoclonal antibody binding proTGFβ1 complexes; VH SEQ ID NO: 212, VL SEQ ID NO: 15 (antibody, V domains shown)
VH: B1 VH with S31D, F32Y, T35V, A56F, A57T, F60Y, E108Y
VL: B1 VL
B4: Ab14: monoclonal antibody binding proTGFβ1 complexes; VH SEQ ID NO: 224, VL SEQ ID NO: 223 (antibody, V domains shown)
VH: B2 VH with S54T, V57S, Y106F
VL: B1 VL with L4M, N53S, T91V, T93D, V94P
B5: Ab17: monoclonal antibody binding proTGFβ1 complexes; VH SEQ ID NO: 230, VL SEQ ID NO: 15 (antibody, V domains shown)
VH: B1 VH with Q1E, V5L, R16G, E108Y
VL: B1 VL
B6: Ab13: monoclonal antibody binding proTGFβ1 complexes; VH SEQ ID NO: 222, VL SEQ ID NO: 223 (antibody, V domains shown)
VH: B2 VH with S30A, A31D, G53S, S54F, G55A, G56S, V57A, T58I, Y106F
VL: B1 VL with L4M, N53S, T91V, T93D, V94P
B7: Ab15: monoclonal antibody binding proTGFβ1 complexes; VH SEQ ID NO: 226, VL SEQ ID NO: 15 (antibody, V domains shown)
VH: B2 VH with L5V, L11V, G16R, A31D, T35V, G56F, V57T, Y106F
VL: B1 VL
B8: Ab16: monoclonal antibody binding proTGFβ1 complexes; VH SEQ ID NO: 228, VL SEQ ID NO: 15 (antibody, V domains shown)
VH: B2 VH with A31N, T35S, G56F, V57T, Y106F
VL: B1 VL
B9: Ab18: monoclonal antibody binding proTGFβ1 complexes; VH SEQ ID NO: 232, VL SEQ ID NO: 15 (antibody, V domains shown)
VH: B1 VH with S31D, F32Y, T35V, R98T, E108Y
VL: B1 VL
B10: Ab11: monoclonal antibody binding proTGFβ1 complexes; VH SEQ ID NO: 216, VL SEQ ID NO: 15 (antibody, V domains shown)
VH: B2 VH with S30R, A31N, T35S, A50S, V57A, Y106F
VL: B1 VL

Target: Matrix-associated proTGFβ1
Assay: MSD-SET binding, ECM average of hLTBP1 and hLTBP3 complexes
Set-up: species or system human
Settings: average KD of (B) and (C), read-out: (D) ECM AVRG
Source text: (§1) Column (A) of the table provides monoclonal antibodies with discrete amino acid sequences. […] Columns (B), (C), (E) and (F) provide affinities of each of the listed antibodies, measured in KD, towards the antigen complex as indicated, respectively. […] Similarly, Average KD values calculated from (E) and (F) are shown in the corresponding column (G), which collectively represents affinities of the antibodies to cell-surface or cell-associated proTGF complexes. Finally, relative ratios between the average KD values from columns (D) and (G) are expressed as fold bias” in column (H). Thus, the greater the numerical of column (H) is, the greater bias exists for the particular antibody, when comparing binding preferences of the antibody for matrix-associated complexes to cell-surface complexes. This is one way of quantitatively representing and comparing inherent bias of antibodies to their target complexes. Such analyses may be useful in guiding the selection process for a candidate antibody for particular therapeutic use. Select antibodies of the present disclosure, as measured by MSD-SET, show context-bias (i.e., greater than five-fold bias) or unbias (i.e., less than 5-fold bias) toward matrix-associated complexes over cell-associated complexes. […] Without being bound by a particular theory, the differences in the kinetics of the assays and/or differences in the nature of recombinant proteins may account for the noticeable differences seen in Ab19 binding to hGARP complexes observed in the above Octet assay (see Table 6) compared to the below MSD-SET assay (see Table 7 below). For example, the Octet assay measures kinetic on and off rates, while the MSD-SET assay measures binding at equilibrium. In addition, the recombinant antibodies used in the Octet assay were expressed as IgG1 antibodies in yeast, while the antibodies used in the MSD assay were expressed as IgG4 antibodies in mammalian cells.

Point of comparison: B2, Kd 0.2 nM. Against it:
- B1 — 14-fold higher, 2.83 nM
- B3 — 3.6-fold higher, 0.72 nM

Test system: Matrix-associated proTGFβ1 vs Cell-associated proTGFβ1
Assay: Octet binding, matrix vs cell bias (G/D)
Set-up: species or system human
Settings: ratio of cell average KD to ECM average KD
Source text: (§2) Column (A) of the table provides monoclonal antibodies with discrete amino acid sequences. […] Columns (B), (C), (E) and (F) provide affinities of each of the listed antibodies, measured in KD, towards the antigen complex as indicated, respectively. […] Average KD values calculated from (B) and (C) are shown in the corresponding column (D), which collectively represents affinities of the antibodies to ECM- or matrix-associated proTGFβ1 complexes. Similarly, Average KD values calculated from (E) and (F) are shown in the corresponding column (G), which collectively represents affinities of the antibodies to cell-surface or cell-associated proTGF complexes. Finally, relative ratios between the average KD values from columns (D) and (G) are expressed as fold bias” in column (H). Thus, the greater the numerical of column (H) is, the greater bias exists for the particular antibody, when comparing binding preferences of the antibody for matrix-associated complexes to cell-surface complexes. This is one way of quantitatively representing and comparing inherent bias of antibodies to their target complexes. Such analyses may be useful in guiding the selection process for a candidate antibody for particular therapeutic use.

Point of comparison: B8, “(H) G/D (fold bias)” value 15.307 fold. Against it:
- B1 — higher, 34.47 fold
- B4 — higher, 17.36 fold
- B5 — higher, 24.288 fold
- B6 — higher, 21.71 fold
- B7 — higher, 24.25 fold
- B3 — higher, 22.897 fold
- B9 — higher, 22.00 fold

Test system: Matrix-associated proTGFβ1 vs Cell-associated proTGFβ1
Assay: MSD-SET binding, matrix vs cell bias (G/D)
Set-up: species or system human
Settings: ratio of cell average KD to ECM average KD
Source text: as §1

With B1 the “(H) G/D (fold bias)” value was 1.675 fold and 1.68 fold.

Point of comparison: B10, “(H) G/D (fold bias)” value 3.87 fold. Against it:
- B2 — higher, 6.75 fold
- B3 — lower, 3.40 fold

Test system: Cell-associated proTGFβ1
Assay: MSD-SET binding, cell average of hGARP and hLRRC33 complexes
Set-up: species or system human
Settings: average KD of (E) and (F), read-out: (G) Cell AVRG
Source text: as §1

Point of comparison: B3, Kd 2.45 nM. Against it:
- B1 — 1.9-fold higher, 4.75 nM
- B10 — 1.9-fold higher, 4.65 nM

Target: Matrix-associated proTGFβ1
Assay: Octet binding, ECM average of hLTBP1 and hLTBP3 complexes
Set-up: species or system human
Settings: average KD of (B) and (C), read-out: (D) ECM AVRG
Source text: as §2

Point of comparison: B9, Kd 0.284 nM. Against it:
- B1 — 1.7-fold lower, 0.172 nM
- B4 — within 1.5-fold, 0.341 nM
- B5 — within 1.5-fold, 0.191 nM
- B6 — within 1.5-fold, 0.263 nM
- B7 — 1.8-fold lower, 0.159 nM
- B8 — 1.8-fold lower, 0.157 nM
- B2 — 1.8-fold lower, 0.162 nM
- B3 — 1.7-fold lower, 0.17 nM
- B10 — 1.8-fold lower, 0.161 nM

Test system: Cell-associated proTGFβ1
Assay: Octet binding, cell average of hGARP and hLRRC33 complexes
Set-up: species or system human
Settings: average KD of (E) and (F), read-out: (G) Cell AVRG
Source text: as §2

Point of comparison: B6, Kd 5.7 nM. Against it:
- B1 — within 1.5-fold, 5.95 nM
- B4 — within 1.5-fold, 5.92 nM
- B5 — within 1.5-fold, 4.64 nM
- B7 — within 1.5-fold, 3.86 nM
- B8 — 2.4-fold lower, 2.4 nM
- B2 — 8-fold lower, 0.715 nM
- B3 — within 1.5-fold, 3.89 nM
- B9 — within 1.5-fold, 6.26 nM
- B10 — 8.2-fold lower, 0.699 nM
